Results taken from patent US20200255503A1.
Where a chain is given by its changes, count along the chain named.

B1: H1M1230N (antibody, V domains shown)
VH: EVQLVESGGGLVQPGGSLRLSCTASGFIFSNFWMTWVRQAPGKGLEWVANIKQDGSETYCVDSVKGRFTISRDHAKNSLFLQMNSLRAEDTAVYYCARGAGTIYYYGMDVWGQGTTVIVSS
VL: DIQMTQSPSSVSASVGDRLTITCRASQDISSWLTWYQQKPGKAPNLLIYAASGLQSGVPSRFSGSGSGTDFTLTISNLQPEDFATYYCQQANSFPLTFGQGTRLEIK
B2: H2M1233N (antibody, mouse IgG2, V domains shown)
VH: QVVLVESGGGVVQPGRSLRLSCAASGFTFSSYGMHWVRQAPGKGLEWVAVIWYDGSNKYYVDSVKGRFTISRDNSNNTIYLQMNSLRAEDTAVYYCARSLIPVAGTDPIFGYWGQGTLVTVSS
VL: DIQMTQSPSTLSASVGDRVTITCRASQSVSSWLAWYQQKPGKAPKLLIFKASGLESGVPFRFSGSGSGTEFTLTISSLQPDDFATYYCQQYNTYSPTFGQGTKVEIK
B3: H2M1236N (antibody, mouse IgG2, V domains shown)
VH: QVQLQESGPGLVKPSETLSLTCTVSGGSISNYYWSWIRQPPGKGLEWIGYIYYSGRTNYNPSLKSRVTISVDTSKNQFSLKLRSVTAADTAVYYCARHRITRTADSFDYWGQGTLVTVSS
VL: DIQMTQSPSSLSASVGDRVTITCQASQDITNYLNWYQQKPGKAPKLLIYDASNLETGVPSRFSGSGSGTDFTFTISSLQPEDVATFYCHQYGDLPYTFGQGTKLEIK
B4: H2M1237N (antibody, mouse IgG2, V domains shown)
VH: B2 VH with N57I, V61A, S99A
VL: B2 VL with A51T
B5: H1M1241N (antibody, V domains shown)
VH: EVQLVESGGGLVKPGGSLRLSCAASGFTFSSYSMNWVRQAPGKGLEWVSSISSRSSYIYYADSVKGRFTISRDNAKNSLYLQMNSLRAEDTAVYYCARDHIVVVPGASYYYYGMDVWGQGTTVTVSS
VL: DIQMTQSPSSLSASVGDRVTITCRASQGIRNDLGWYQQKPGKAPKRLISAASSLQSGVPSRFSGSGSGTEFTLTISSLQPEDFATYYCLQHNSYPLTFGGGTKVEIK
B6: H2M1242N (antibody, mouse IgG2, V domains shown)
VH: EVQLVESGGGLVRPGGSLRLSCAASGFTFTSYAMNWVRQAPGKGLEWVSSISSYSSYIYIADSVKGRFTLSRDNAKNSLYLQMHSLRPEDTAVYFCAREGYSAYSYFDFWGRGTLVTVSS
VL: B2 VL with S30I, F49H, K50R, G53S, F60S, S77G, S95F, I106V
B7: H4H2590S (antibody, human IgG4, V domains shown)
VH: QVQLVESGGGLVKPGGSLRLSCAASGFTFSDYYMNWIRQAPGKGLEWISYISSGGSTTYYADSVKGRFTISRDNAKNSLYLQMNSLRAEDTAVYYCARDGKYNTSPGDYWGQGTLVTVSS
VL: EIVLTQSPDFQSVTPKEKVTITCRASQSIGSSLHWYQQKPDQSPKLLIKYASQSFSGVPSRFSGSGSGTDFTLTINSLEAEDAATYYCLQSSSLRTFGQGTKVDIK
B8: H4H2592B (antibody, human IgG4, V domains shown)
VH: B7 VH with G54S, Y80F, A88G, K101R, S105V, P106A, L115T
VL: EIVMTQSPDFQSVAPKEKVTITCRASQNIGGSLHWYQQKPDQSPKLLIKYASQSFSGVPSRFSGSGSGTDFTLTINSLEAEDAATYYCLQSYTLRTFGQGTKVEIKR
B9: H4H2597B (antibody, human IgG4, V domains shown)
VH: EVQLVESGGGLVQPGGSLRLSCAVSGFTFSNYAMNWVRQAPGKGLEWVSVISDSGRSTYYADSVKGRFTISRDNSKNTLYLQMNSLRAEDTAVYFCAKRYNWNLHYFDYWGQGTTVTVSS
VL: B8 VL with M4L, A14T, N28S, Y92S, T93S
B10: H4H2606B (antibody, human IgG4, V domains shown)
VH: EVQLVESGGGLVKPGGSLRLSCAASGFTFSDYYMNWIRQAPGKGLEWVSYISSSGNSIYYADSVKGRFTISRDNAKNSLFLQMSSLRAEDTAVYYCARDGRYNDRRRGYYWGQGTLVTVSS
VL: B8 VL with A14T, N28S, G31S, Y92S, T93S
B11: H4H2607B (antibody, human IgG4, V domains shown)
VH: B7 VH with Q1E, I51L, G54S, T57A, S105V, P106A, L115T
VL: DIQLTQSPSSLSASVGDRVTITCRASQGIRNDLGWYQQKPGKAPKRLIYAASSLQSGVPSRFSGSGSGTEFTLTISSLQPEDFATYYCLQHNSYPYTFGQGTKVEIKR
B12: H4H2608B (antibody, human IgG4, V domains shown)
VH: B7 VH with Q1E, G54S, G55D, S56D, S105V, P106A, Y109H
VL: B8 VL with G31S
B13: H4H2797P (antibody, human IgG4, V domains shown)
VH: QVQLVESGGGVVLPGRSLRLSCAASGFTFSSYLMYWVRQAPGKGLEWVAVIWYDGSNKFYGDSVKGRFTISRDNSKNTLYLQMNSLRAEDTAVYYCARDNGNSGYEDSWNAFDIWGQGTMVTVSS
VL: DIQMTQSPSSLSASVGDRVTITCRASQDIYNYLAWFQQKPGKAPKSLIYAASSLQTGVPSQFSGSGSGTDFTLTISSLQPEDFATYYCQQYNNYPFTFGPGTKVDIK

Biological target: natural Fel d1 (cat (Felis domesticus)) (UniProt P30438)
Assay: SPR, mAb captured, nFel d1 injected, 25 C

Row | Kd | koff | kon | t1/2 | Binder
1 | 3.37 nM | 0.000869 s⁻¹ | 258000 M⁻¹ s⁻¹ | 13 min | B1
2 | 1.4 nM | 0.000353 s⁻¹ | 253000 M⁻¹ s⁻¹ | 33 min | B2
3 | 4.55 nM | 0.00142 s⁻¹ | 312000 M⁻¹ s⁻¹ | 8 min | B3
4 | 0.982 nM | 0.000276 s⁻¹ | 281000 M⁻¹ s⁻¹ | 42 min | B4
5 | 3.63 nM | 0.000662 s⁻¹ | 182000 M⁻¹ s⁻¹ | 17 min | B5
6 | 3.14 nM | 0.000604 s⁻¹ | 192000 M⁻¹ s⁻¹ | 19 min | B6
7 | 0.655 nM | 0.000802 s⁻¹ | 1.23e+06 M⁻¹ s⁻¹ | 14 min | B7
8 | 0.641 nM | 0.000728 s⁻¹ | 1.14e+06 M⁻¹ s⁻¹ | 16 min | B8
9 | 0.65 nM | 0.0015 s⁻¹ | 2.31e+06 M⁻¹ s⁻¹ | 8 min | B9
10 | 0.765 nM | 0.000707 s⁻¹ | 924000 M⁻¹ s⁻¹ | 16 min | B10
11 | 0.307 nM | 0.00091 s⁻¹ | 2.97e+06 M⁻¹ s⁻¹ | 13 min | B11
12 | 2.05 nM | 0.00106 s⁻¹ | 516000 M⁻¹ s⁻¹ | 11 min | B12
13 | 35.4 nM | 0.00713 s⁻¹ | 202000 M⁻¹ s⁻¹ | 2 min | B13
